The target in this test is T1, MBP-tagged bHLH107 (Arabidopsis, UniProt Q9LET0 1-230).
T1 sequence (looked up): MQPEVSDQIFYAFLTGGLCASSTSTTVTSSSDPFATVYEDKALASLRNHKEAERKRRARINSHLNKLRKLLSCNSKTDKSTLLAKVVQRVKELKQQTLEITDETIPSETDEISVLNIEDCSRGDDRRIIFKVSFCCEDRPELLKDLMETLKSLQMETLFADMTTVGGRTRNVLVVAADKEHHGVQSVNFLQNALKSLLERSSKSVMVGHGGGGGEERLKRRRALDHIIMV
As to the kind of experiment: pull-down.

B1: His-tagged HY5 (natural protein, Arabidopsis, UniProt O24646 1-168, looked up)
chain: MQEQATSSLAASSLPSSSERSSSSAPHLEIKEGIESDEEIRRVPEFGGEAVGKETSGRESGSATGQERTQATVGESQRKRGRTPAEKENKRLKRLLRNRVSAQQARERKKAYLSELENRVKDLENKNSELEERLSTLQNENQMLRHILKNTTGNKRGGGGGSNADASL
For the molecule B1, the binding result is reported as “binds”.

(Values after doi:10.1101/2024.09.27.615457 (bioRxiv, 2024).)
